B1: KCTD10 (parent)
chain: SSKEEQKLIATSNKPAVKLLYNRS
B2: PRAME (parent)
chain: KKLKIFAMPMQDIKMILKMVQLDS

Variants of: B1
Assay: protein stability index of a GFP-peptide fusion (GPS, HEK-293T) (PSI 1-6); higher = more stable
Conditions: c terminus: a fixed tail appended
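Also: lentivirally expressed fusions sorted by FACS into six bins by GFP to DsRed ratio, PSI derived from sequencing read proportions per bin multiplied by bin number.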

Variant	protein stability index
SSKEEQKLIATSNKPAVKLLYPRS	3.83
SSKEEQKLIATSNKPAVKLLYKRS	4.16
SSKEEQKLIATSNKPAVKLLYFRS	3.17
SSKEEQKLIATSNKPAVKLLYARS	3.84
SSKEEQKLIATSNKPAVKLLYVRS	3.54
SSKEEQKLIATSNKPAVKLLYERS	4.22
SSKEEQKLIATSNKPAVKLLYDRS	4.55
SSKEEQKLIATSNKPAVKLLYHRS	4.01
SSKEEQKLIATSNKPAVKLLYTRS	4.12
SSKEEQKLIATSNKPAVKLLYMRS	2.92
SSKEEQKLIATSNKPAVKLLYIRS	2.71
SSKEEQKLIATSNKPAVKLLYGRS	4
SSKEEQKLIATSNKPAVKLLYRRS	4.15
SSKEEQKLIATSNKPAVKLLYWRS	2.73
SSKEEQKLIATSNKPAVKLLYCRS	3.7
SSKEEQKLIATSNKPAVKLLYSRS	3.41
SSKEEQKLIATSNKPAVKLLYQRS	4.09
SSKEEQKLIATSNKPAVKLLYYRS	2.96
SSKEEQKLIATSNKPAVKLLYLRS	3.14
SSKEEQKLIATSNKPAVKLLYNKS	4.29
SSKEEQKLIATSNKPAVKLLYNSS	4.13
SSKEEQKLIATSNKPAVKLLYNES	4.63
SSKEEQKLIATSNKPAVKLLYNNS	4.21
SSKEEQKLIATSNKPAVKLLYNVS	3.74

Variant	protein stability index
SSKEEQKLIATSNKPAVKLLYNQS	4.01
SSKEEQKLIATSNKPAVKLLYNCS	3.76
SSKEEQKLIATSNKPAVKLLYNLS	3.03
SSKEEQKLIATSNKPAVKLLYNIS	3.37
SSKEEQKLIATSNKPAVKLLYNPS	4.21
SSKEEQKLIATSNKPAVKLLYNHS	3.85
SSKEEQKLIATSNKPAVKLLYNTS	3.7
SSKEEQKLIATSNKPAVKLLYNDS	4.71
SSKEEQKLIATSNKPAVKLLYNWS	3.15
SSKEEQKLIATSNKPAVKLLYNGS	3.75
SSKEEQKLIATSNKPAVKLLYNFS	3.29
SSKEEQKLIATSNKPAVKLLYNAS	3.99
SSKEEQKLIATSNKPAVKLLYNMS	3.35
SSKEEQKLIATSNKPAVKLLYNYS	3.32
SSKEEQKLIATSNKPAVKLLYNRL	3.4
SSKEEQKLIATSNKPAVKLLYNRT	4.21
SSKEEQKLIATSNKPAVKLLYNRG	4.04
SSKEEQKLIATSNKPAVKLLYNRK	4.7
SSKEEQKLIATSNKPAVKLLYNRD	4.45
SSKEEQKLIATSNKPAVKLLYNRW	2.6
SSKEEQKLIATSNKPAVKLLYNRV	3.5
SSKEEQKLIATSNKPAVKLLYNRP	4.09
SSKEEQKLIATSNKPAVKLLYNRE	4.55
SSKEEQKLIATSNKPAVKLLYNRR	4.46

Variant	protein stability index
SSKEEQKLIATSNKPAVKLLYNRQ	4.17
SSKEEQKLIATSNKPAVKLLYNRC	3.25
SSKEEQKLIATSNKPAVKLLYNRM	3.52
SSKEEQKLIATSNKPAVKLLYNRN	4.2
SSKEEQKLIATSNKPAVKLLYNRH	3.56
SSKEEQKLIATSNKPAVKLLYNRI	3.22
SSKEEQKLIATSNKPAVKLLYNRA	3.65
SSKEEQKLIATSNKPAVKLLYNRY	3.48
SSKEEQKLIATSNKPAVKLLYNRF	3.52
SSKEEQKLIATSNKPAVKLLLNRS	4.06
SSKEEQKLIATSNKPAVKLLCNRS	4.73
SSKEEQKLIATSNKPAVKLLINRS	4.13
SSKEEQKLIATSNKPAVKLLFNRS	3.75
SSKEEQKLIATSNKPAVKLLVNRS	3.67
SSKEEQKLIATSNKPAVKLLENRS	4.25
SSKEEQKLIATSNKPAVKLLGNRS	4.97
SSKEEQKLIATSNKPAVKLLANRS	4.33
SSKEEQKLIATSNKPAVKLLNNRS	4.58
SSKEEQKLIATSNKPAVKLLMNRS	4.18
SSKEEQKLIATSNKPAVKLLPNRS	4.07
SSKEEQKLIATSNKPAVKLLQNRS	4.46
SSKEEQKLIATSNKPAVKLLSNRS	4.33
SSKEEQKLIATSNKPAVKLLTNRS	4.54
SSKEEQKLIATSNKPAVKLLWNRS	4.05

Variant	protein stability index
SSKEEQKLIATSNKPAVKLLKNRS	4.68
SSKEEQKLIATSNKPAVKLLHNRS	4.46
SSKEEQKLIATSNKPAVKLLRNRS	4.42
SSKEEQKLIATSNKPAVKLLDNRS	4.93
SSKEEQKLIATSNKPAVKLRYNRS	4.46
SSKEEQKLIATSNKPAVKLEYNRS	3.98
SSKEEQKLIATSNKPAVKLNYNRS	4.37
SSKEEQKLIATSNKPAVKLQYNRS	4.28
SSKEEQKLIATSNKPAVKLGYNRS	4.73
SSKEEQKLIATSNKPAVKLWYNRS	3.35
SSKEEQKLIATSNKPAVKLVYNRS	4.09
SSKEEQKLIATSNKPAVKLKYNRS	4.53
SSKEEQKLIATSNKPAVKLPYNRS	4.98
SSKEEQKLIATSNKPAVKLIYNRS	4.6
SSKEEQKLIATSNKPAVKLSYNRS	4.35
SSKEEQKLIATSNKPAVKLHYNRS	4.48
SSKEEQKLIATSNKPAVKLYYNRS	3.82
SSKEEQKLIATSNKPAVKLDYNRS	4.53
SSKEEQKLIATSNKPAVKLFYNRS	3.95
SSKEEQKLIATSNKPAVKLTYNRS	4.72
SSKEEQKLIATSNKPAVKLMYNRS	4.11

Variants of: B2
Assay: as above
Conditions: c terminus: a fixed tail appended

Variant	protein stability index
KKLKRFAMPMQDIKMILKMVQLDS	2.43
KKLKCFAMPMQDIKMILKMVQLDS	2.65
KKLKTFAMPMQDIKMILKMVQLDS	2.5
KKLKVFAMPMQDIKMILKMVQLDS	3.29
KKLKGFAMPMQDIKMILKMVQLDS	4.35
KKLKPFAMPMQDIKMILKMVQLDS	2.55
KKLKAFAMPMQDIKMILKMVQLDS	3.02
KKLKHFAMPMQDIKMILKMVQLDS	1.77
KKLKKFAMPMQDIKMILKMVQLDS	4.37
KKLKYFAMPMQDIKMILKMVQLDS	2.6
KKLKEFAMPMQDIKMILKMVQLDS	3.63
KKLKDFAMPMQDIKMILKMVQLDS	1.82
KKLKFFAMPMQDIKMILKMVQLDS	2.77
KKLKNFAMPMQDIKMILKMVQLDS	4.02
KKLKMFAMPMQDIKMILKMVQLDS	3.17
KKSKIFAMPMQDIKMILKMVQLDS	2.92
KKDKIFAMPMQDIKMILKMVQLDS	3.34
KKEKIFAMPMQDIKMILKMVQLDS	1.06
KKRKIFAMPMQDIKMILKMVQLDS	2.1
KKNKIFAMPMQDIKMILKMVQLDS	2.82
KKMKIFAMPMQDIKMILKMVQLDS	4.28
KKYKIFAMPMQDIKMILKMVQLDS	4.33
KKCKIFAMPMQDIKMILKMVQLDS	2.1
KKHKIFAMPMQDIKMILKMVQLDS	3.6

Variant	protein stability index
KKIKIFAMPMQDIKMILKMVQLDS	1.63
KKWKIFAMPMQDIKMILKMVQLDS	2.03
RKLKIFAMPMQDIKMILKMVQLDS	3.39
DKLKIFAMPMQDIKMILKMVQLDS	3.38
SKLKIFAMPMQDIKMILKMVQLDS	3.56
AKLKIFAMPMQDIKMILKMVQLDS	3.05
QKLKIFAMPMQDIKMILKMVQLDS	2.55
PKLKIFAMPMQDIKMILKMVQLDS	3.89
EKLKIFAMPMQDIKMILKMVQLDS	2.31
YKLKIFAMPMQDIKMILKMVQLDS	1.86
VKLKIFAMPMQDIKMILKMVQLDS	2.08
LKLKIFAMPMQDIKMILKMVQLDS	2.86
MKLKIFAMPMQDIKMILKMVQLDS	2.68
HKLKIFAMPMQDIKMILKMVQLDS	3.51
NKLKIFAMPMQDIKMILKMVQLDS	3.99
TKLKIFAMPMQDIKMILKMVQLDS	3.61
FKLKIFAMPMQDIKMILKMVQLDS	4.97
CKLKIFAMPMQDIKMILKMVQLDS	2.92
KKLKIWAMPMQDIKMILKMVQLDS	4.71
KKLKIAAMPMQDIKMILKMVQLDS	2.77
KKLKINAMPMQDIKMILKMVQLDS	1.3
KKLKIQAMPMQDIKMILKMVQLDS	1.59
KKLKIRAMPMQDIKMILKMVQLDS	3.11
KKLKITAMPMQDIKMILKMVQLDS	2.2

Variant	protein stability index
KKLKIGAMPMQDIKMILKMVQLDS	2.55
KKLKIMAMPMQDIKMILKMVQLDS	1.84
KKLKILAMPMQDIKMILKMVQLDS	3.92
KKLKIDAMPMQDIKMILKMVQLDS	1.26
KKLKIKAMPMQDIKMILKMVQLDS	2.72
KKLKIEAMPMQDIKMILKMVQLDS	1.52
KKLKICAMPMQDIKMILKMVQLDS	3.09
KKLKIFMMPMQDIKMILKMVQLDS	2.6
KKLKIFGMPMQDIKMILKMVQLDS	1.38
KKLKIFDMPMQDIKMILKMVQLDS	3.87
KKLKIFIMPMQDIKMILKMVQLDS	3.67
KKLKIFHMPMQDIKMILKMVQLDS	2.52
KKLKIFKMPMQDIKMILKMVQLDS	3.26
KKLKIFCMPMQDIKMILKMVQLDS	2.66
KHLKIFAMPMQDIKMILKMVQLDS	3.33
KMLKIFAMPMQDIKMILKMVQLDS	1.79
KRLKIFAMPMQDIKMILKMVQLDS	1.59
KTLKIFAMPMQDIKMILKMVQLDS	2.9
KYLKIFAMPMQDIKMILKMVQLDS	3.88
KSLKIFAMPMQDIKMILKMVQLDS	2.94
KILKIFAMPMQDIKMILKMVQLDS	3.39
KALKIFAMPMQDIKMILKMVQLDS	2.69
KLLKIFAMPMQDIKMILKMVQLDS	2.34
KPLKIFAMPMQDIKMILKMVQLDS	2.61

Variant	protein stability index
KDLKIFAMPMQDIKMILKMVQLDS	3.31
KVLKIFAMPMQDIKMILKMVQLDS	2.36
KNLKIFAMPMQDIKMILKMVQLDS	4.46
KQLKIFAMPMQDIKMILKMVQLDS	3.53
KGLKIFAMPMQDIKMILKMVQLDS	2.86
KFLKIFAMPMQDIKMILKMVQLDS	2.09
KKLCIFAMPMQDIKMILKMVQLDS	2.4
KKLPIFAMPMQDIKMILKMVQLDS	2.85
KKLIIFAMPMQDIKMILKMVQLDS	3.41
KKLVIFAMPMQDIKMILKMVQLDS	3.08
KKLAIFAMPMQDIKMILKMVQLDS	2.11
KKLGIFAMPMQDIKMILKMVQLDS	4.41
KKLMIFAMPMQDIKMILKMVQLDS	3.45
KKLDIFAMPMQDIKMILKMVQLDS	1.92
KKLFIFAMPMQDIKMILKMVQLDS	2.44
KKLSIFAMPMQDIKMILKMVQLDS	3.49
KKLEIFAMPMQDIKMILKMVQLDS	2.02
KKLRIFAMPMQDIKMILKMVQLDS	1.99
KKLQIFAMPMQDIKMILKMVQLDS	3.25
KKLWIFAMPMQDIKMILKMVQLDS	2.87
KKLNIFAMPMQDIKMILKMVQLDS	1.6
KKLHIFAMPMQDIKMILKMVQLDS	4.52
KKLTIFAMPMQDIKMILKMVQLDS	3.69

From the supplement of paper PMC10567573
